Values quoted from earlier work, collected in PMC12384152.

Target: β-spectrin repeats 14-15 (Homo sapiens) (UniProt P11277)
Sequence of UniProt P11277 (P11277 1691-1907): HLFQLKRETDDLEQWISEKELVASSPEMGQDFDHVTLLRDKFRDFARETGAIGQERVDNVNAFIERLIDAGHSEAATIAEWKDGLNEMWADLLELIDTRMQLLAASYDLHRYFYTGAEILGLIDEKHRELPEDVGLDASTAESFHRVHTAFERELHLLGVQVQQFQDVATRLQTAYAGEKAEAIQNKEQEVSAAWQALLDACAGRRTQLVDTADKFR

Q: With ankyrin-1 ZU5 (from UniProt P16157) as the substance, how does the Kd read?
A: 15 nM
